The results in this text go back to paper PMC6391492, “Native mass spectrometry identifies an alternative DNA-binding pathway for BirA from Staphylococcus aureus”.

Data set [1] concerns the target S. aureus BirA (biotin retention protein A, biotin protein ligase), strain Mu50, wild type (S. aureus strain Mu50). Description: native MS; holo proteins (pre-incubated with 500 µM biotin, 1 mM ATP, 1 mM MgCl2 on ice, then buffer exchanged), no DNA, 10 µM protein in 200 mM ammonium acetate pH 6.85; dimer to monomers.
Data set [2] shares this target. Description: native MS; holo proteins, 10 µM, with 5 µM SabioO oligonucleotide with only one BirA half site, 200 mM ammonium acetate pH 6.9, 4 °C at least 1 hour.
The target in data set [3] is T1, SaBirA-F123G (Staphylococcus aureus Mu50, UniProt A0A0H3JRH8 1-323, F123G). Description: native nESI-MS; apo; one subunit on DNA; nESI-MS: 200 mM ammonium acetate pH 6.9, 10 uM protein, 5 uM DNA, 4 C >=1 h; EMSA: 50 mM Tris pH 8.0, 50 mM NaCl, 0.1 mM biotin, 1 mM ATP, 1 mM MgCl2, 10% glycerol, 10 nM DNA, room temperature 30 min. The note with it: protein: recombinant; label: none; blunt. In general terms: In EMSA bound probe runs differently from free probe, usually more slowly.

The target of data set [4] is T2, SaBirA (Staphylococcus aureus Mu50, UniProt A0A0H3JRH8 1-323). Description: native nESI-MS; apo; one monomer on DNA, no dimer; nESI-MS: 200 mM ammonium acetate pH 6.9, 10 uM protein, 5 uM DNA, 4 C >=1 h; EMSA: 50 mM Tris pH 8.0, 50 mM NaCl, 0.1 mM biotin, 1 mM ATP, 1 mM MgCl2, 10% glycerol, 10 nM DNA, room temperature 30 min. The settings on record: protein: recombinant; label: none; blunt.

Data set [5] concerns the target T2, SaBirA. The data set is described as follows: native nESI-MS; apo; two subunits on DNA; nESI-MS: 200 mM ammonium acetate pH 6.9, 10 uM protein, 5 uM DNA, 4 C >=1 h; EMSA: 50 mM Tris pH 8.0, 50 mM NaCl, 0.1 mM biotin, 1 mM ATP, 1 mM MgCl2, 10% glycerol, 10 nM DNA, room temperature 30 min. The note with it: protein: recombinant; label: none; blunt.
The target of data set [6] is T1, SaBirA-F123G. The data set is described as follows: EMSA; holo; biotin, ATP, Mg2+; nESI-MS: 200 mM ammonium acetate pH 6.9, 10 uM protein, 5 uM DNA, 4 C >=1 h; EMSA: 50 mM Tris pH 8.0, 50 mM NaCl, 0.1 mM biotin, 1 mM ATP, 1 mM MgCl2, 10% glycerol, 10 nM DNA, room temperature 30 min. The settings on record: protein: recombinant, label: none.
Data set [7] concerns the target EcBirA (Escherichia coli, UniProt P06709 1-321). Description: native nESI-MS; holo (biotinyl-5'-AMP); two subunits on DNA; nESI-MS: 200 mM ammonium acetate pH 6.9, 10 uM protein, 5 uM DNA, 4 C >=1 h; EMSA: 50 mM Tris pH 8.0, 50 mM NaCl, 0.1 mM biotin, 1 mM ATP, 1 mM MgCl2, 10% glycerol, 10 nM DNA, room temperature 30 min. The settings on record: protein: recombinant; chain copies: 2; label: none.

Data set [8] addresses EcBirA-R119W (Escherichia coli, UniProt P06709 1-321, R119W). The data set is described as follows: native nESI-MS; holo (biotinyl-5'-AMP); two subunits on DNA; 10 uM protein; nESI-MS: 200 mM ammonium acetate pH 6.9, 10 uM protein, 5 uM DNA, 4 C >=1 h; EMSA: 50 mM Tris pH 8.0, 50 mM NaCl, 0.1 mM biotin, 1 mM ATP, 1 mM MgCl2, 10% glycerol, 10 nM DNA, room temperature 30 min. The settings on record: protein: recombinant; label: none.

For data set [9], the target named is T2, SaBirA. The data set is described as follows: native nESI-MS; apo; nESI-MS: 200 mM ammonium acetate pH 6.9, 10 uM protein, 5 uM DNA, 4 C >=1 h; EMSA: 50 mM Tris pH 8.0, 50 mM NaCl, 0.1 mM biotin, 1 mM ATP, 1 mM MgCl2, 10% glycerol, 10 nM DNA, room temperature 30 min. The note with it: protein: recombinant; label: none; blunt.
Data set [10] addresses T1, SaBirA-F123G. Described as above. The note with it: protein: recombinant; label: none; blunt.
Data set [11] has as its target T2, SaBirA. The data set is described as follows: EMSA; holo; biotin, ATP, Mg2+; up to 2 uM; nESI-MS: 200 mM ammonium acetate pH 6.9, 10 uM protein, 5 uM DNA, 4 C >=1 h; EMSA: 50 mM Tris pH 8.0, 50 mM NaCl, 0.1 mM biotin, 1 mM ATP, 1 mM MgCl2, 10% glycerol, 10 nM DNA, room temperature 30 min. The settings on record: protein: recombinant; label: none; blunt.

The stoichiometry N is the number of molecules, sites or subunits per partner or assembly. On to “S. aureus BirA (biotin retention protein A, biotin protein ligase), strain Mu50, wild type (enzyme)”, for which the stoichiometry N in [1] and in data set [2] was 2 in each case.

B1: HS1m SabioO (first half-site mutated) (dsDNA)
DNA 1: TTACACAGACGATTATTAATTATAAAAGTTTACATTCG
DNA 2: CGAATGTAAACTTTTATAATTAATAATCGTCTGTGTAA
On to B1, for which the binding result in data set [3] and in data set [4] was “binds” throughout.

B2: SabioY (full strands) (dsDNA)
DNA 1: AACTTATTGTAAACTTTTCATTTCTTAAAGTTTACAATGGTGCT
DNA 2: AGCACCATTGTAAACTTTAAGAAATGAAAAGTTTACAATAAGTT
Consider B2, for which the binding result in data set [5] and in data set [6] (blunt) was “binds” in each case.

B3: EcbioO (dsDNA)
DNA 1: TAATCGACTTGTAAACCAAATTGAAAAGATTTAGGTTTACAAGTCTACAC
DNA 2: GTGTAGACTTGTAAACCTAAATCTTTTCAATTTGGTTTACAAGTCGATTA
As for B3, the binding result in data set [7] and in data set [8] was “binds” in each case.

B4: SabioO (dsDNA)
DNA 1: CCTTAAATGTAAACTTTTATAATTAATAAGTTTACATTTAAG
DNA 2: CCTTAAATGTAAACTTATTAATTATAAAAGTTTACATTTAAGG
B4: the binding result in [6] is listed as “binds”.

B5: HSm SabioO (both half-sites mutated) (dsDNA)
DNA 1: TTACACAGACGATTATTAATTATAAAAAGCAGACACCG
DNA 2: CGGTGTCTGCTTTTTATAATTAATAATCGTCTGTGTAA
Consider B5, for which the binding result in data set [9] and in [10] was “no binding” in each case.

B6: HS2m SabioO (second half-site mutated) (dsDNA)
DNA 1: TTAAATGTAAACTTATTAATTATAAAAAGCAGACACCG
DNA 2: CGGTGTCTGCTTTTTATAATTAATAAGTTTACATTTAA
With B6, the binding result in [11] was “no binding”.
